Virus titer in Vero cells treated with anti-ADGRL2 monoclonal antibody, against untreated samples (log units lower) and virus titer in Vero cells treated with anti-AnxA2 monoclonal antibody, against untreated samples (log units lower) data for one substance are collected here from PMC10269738.

The target of test [1] is adhesion G protein-coupled receptor Latrophilin-2 of Vero cells (African green monkey (endogenous in Vero)).
Test [2] concerns the target cell-surface annexin A2 of Vero cells (African green monkey (endogenous in Vero)).

“avian reovirus (ARV) σC protein, strain S1133 (natural protein)” yielded a virus titer in Vero cells treated with anti-ADGRL2 monoclonal antibody, against untreated samples (log units lower) in test [1] of 3. In addition, in test [2], the virus titer in Vero cells treated with anti-AnxA2 monoclonal antibody, against untreated samples (log units lower) amounted to 2.5.
